Test results taken from patent US9999664B2, “HIV-1 gp120 mini V3 loop and uses thereof” (The Scripps Research Institute, priority 2011, dated 2018).

How the values were obtained:
gp120 BaL (HIV-1 BaL) = experiment: gp120 ELISA
[1] = molecular target: gp120 JR-CSF (HIV-1 JR-CSF) (UniProt P20871); experiment: gp120 ELISA
[2] = molecular target: gp120 JR-FL (HIV-1 JR-FL); experiment: gp120 ELISA
[3] = molecular target: HIV-1 BaL envelope (Env) on pseudovirus (HIV-1 BaL); experiment: cell-based or functional assay
[4] = molecular target: HIV-1 JR-CSF envelope (Env) on pseudovirus (HIV-1 JR-CSF) (UniProt P20871); experiment: cell-based or functional assay
[5] = molecular target: HIV-1 JR-FL envelope (Env) on pseudovirus (HIV-1 JR-FL); experiment: cell-based or functional assay
PGT 127 = experiment: Neoglycolipid microarray binding, PGT 127; settings: PGT 127 at 10 μg/ml pre-complexed with biotinylated anti-human-IgG; 5 fmol/spot
Method: (§1) The microarrays (designated N-glycan-related Array Set 1) consisted of NGLs prepared by reductive amination (70) or oxime ligation (71) (Table S5). These were robotically printed onto nitrocellulose-coated glass slides as described (72), each at two levels (2 and 5 fmol/spot) in duplicate. The binding assays (70) were performed at ambient temperature. The PGTs 127 and 128 were pre-complexed with biotinylated anti-human-IgG (Vector) at a 1:3 ratio, w/w, before applying onto the slides at a final concentration of 10 μg/ml. Biotinylated ConA (Vector) was tested at 0.5 μg/ml. Binding was detected with Alexa-Fluor 647 labelled streptavidin (Molecular Probes) at 1 μg/ml. Microarray data analysis was performed with dedicated software. Binding signals were oligosaccharide dose-related. Results at 5 fmol/spot with selected oligomannose NGLs (prepared by reductive amination) are in FIG. 9A, and the full data with the 50 NGLs are shown in Table S6. Included for comparison are the results with human 2G12 (Polymun Scientific) taken from an earlier experiment performed using a different version of microarrays (73). Antibody 2G12 was analyzed at 1:10000 dilution (without pre-complexation), and the binding was detected with biotinylated anti-human-IgG followed by Alexa-Fluor 647 labelled streptavidin.

PGT 128 = experiment: Neoglycolipid microarray binding, PGT 128; settings: PGT 128 at 10 μg/ml pre-complexed with biotinylated anti-human-IgG; 5 fmol/spot
Method: as §1

plant lectin ConA = molecular target: T1, plant lectin ConA (Canavalia ensiformis, UniProt P02866); experiment: Neoglycolipid microarray binding, ConA; settings: biotinylated ConA at 0.5 μg/ml
T1 construct: purchased Vector
Method: as §1

2G12 = 2G12 at 1:10000 dilution; earlier experiment, different version of the microarray; cited from earlier work
[6] = molecular target: gp120 (ELISA antigen of FIG. 3, strain not stated) (HIV-1, strain not stated); experiment: ELISA on coated gp120, absorbance at 405 nm
[7] = molecular target: HIV-1 JR-FL envelope (Env) on pseudovirus (HIV-1 JR-FL)

Row | Compound | fold change in gp120 binding (EC50 variant/EC50 WT) (gp120 BaL (HIV-1 BaL)) | fold change in gp120 binding (EC50 variant/EC50 WT) [1] | fold change in gp120 binding (EC50 variant/EC50 WT) [2] | Fold change in neutralization (IC50 variant/IC50 WT antibody) [3] | Fold change in neutralization (IC50 variant/IC50 WT antibody) [4] | Fold change in neutralization (IC50 variant/IC50 WT antibody) [5] | Fluorescence signal intensity 127 (PGT 127) | Fluorescence signal intensity 128 (PGT 128) | Fluorescence signal intensity ConA (plant lectin ConA) | Fluorescence signal intensity 2G12 (2G12) | EC50 (read off the curve) [6] | IC50 (read off the curve; HIV-1JR-FL pseudovirus) [7]
1 | PGT 128 IgG variant HC Y52eA (antibody) | 0.9 fold | 1.2 fold | 0.7 fold | 12.9 fold | 2.1 fold | 21.1 fold | – | – | – | – | – | –
2 | CCCCCCCCCCCCCCCCOCC(COP(=O)(O)OCCNCC(NC(C)=O)C(O)C(OC1OC(CO)C(O)C(OC2OC(CO)C(O)C(O)C2O)C1O)C(O)CO)OCCCCCCCCCCCCCCCC (centres unmarked) [Man2GN1-DH, Manα-3Manβ-4GlcNAc-DH] | – | – | – | – | – | – | — (Signal less than 1) | 16 | 575 | — (Signal less than 1) | – | –
3 | CCCCCCCCCCCCCCCCOCC(COP(=O)(O)OCCNCC(NC(C)=O)C(O)C(OC1OC(CO)C(O)C(O)C1O)C(O)CO)OCCCCCCCCCCCCCCCC (centres unmarked) [Man1GN1-DH, Manβ-4GlcNAc-DH] | – | – | – | – | – | – | — (Signal less than 1) | — (Signal less than 1) | — (Signal less than 1) | 101 | – | –
4 | PGT 128 IgG variant HC W100eA (antibody) | 15 fold | 17.4 fold | 9.4 fold | 658 fold | 29.7 fold | > 3000 fold | – | – | – | – | 0.5 µg/mL | –
5 | Glcα-6Glcα-6Glcα-6Glcα-6Glcα-6Glc-AO [Dextran-6-AO] | – | – | – | – | – | – | — (Signal less than 1) | — (Signal less than 1) | 1,138 | — (Signal less than 1) | – | –
6 | PGT 128 IgG variant HC D72A (antibody) | 0.7 fold | 0.9 fold | 0.7 fold | 1.2 fold | 1 fold | – | – | – | – | – | – | –
7 | PGT 128 IgG variant HC A31S (antibody) | 0.9 fold | 0.8 fold | 1.1 fold | 1.2 fold | 1.1 fold | – | – | – | – | – | – | –
8 | PGT 128 IgG variant HC K100gA (antibody) | 28 fold | – | 22.3 fold | 1700 fold | 142 fold | > 3000 fold | – | – | – | – | 1 µg/mL | –
9 | CCCCCCCCCCCCCCCCOCC(COP(=O)(O)OCCNCC(NC(C)=O)C(O)C(OC1OC(CO)C(OC2OC(COC3OC(COC4OC(CO)C(O)C(O)C4O)C(O)C(OC4OC(CO)C(O)C(O)C4O)C3O)C(O)C(O)C2O)C(O)C1NC(C)=O)C(O)CO)OCCCCCCCCCCCCCCCC (centres unmarked) [Man4bGN2-DH] | – | – | – | – | – | – | — (Signal less than 1) | — (Signal less than 1) | 16,615 | — (Signal less than 1) | – | –
10 | PGT 128 IgG variant HC H59A (antibody) | 1 fold | 1 fold | 0.8 fold | 11.5 fold | 6.8 fold | 12.4 fold | – | – | – | – | – | –
11 | CCCCCCCCCCCCCCCCOCC(COP(=O)(O)OCCNCC(NC(C)=O)C(O)C(OC1OC(CO)C(OC2OC(COC3OC(CO)C(O)C(O)C3O)C(O)C(O)C2O)C(O)C1NC(C)=O)C(O)CO)OCCCCCCCCCCCCCCCC (centres unmarked) [Man2aGN2-DH, Manα-6Manβ-4GlcNAcβ-4GlcNAc-DH] | – | – | – | – | – | – | — (Signal less than 1) | — (Signal less than 1) | 1,923 | — (Signal less than 1) | – | –
12 | PGT 128 IgG variant HC R54A (antibody) | 0.6 fold | 0.9 fold | 0.5 fold | 2.3 fold | 0.6 fold | – | – | – | – | – | – | –
13 | 128 (-ASYWNR) (antibody) | – | – | – | – | – | – | – | – | – | – | 0.7 µg/mL | 0.7 µg/mL
